Data: patent US20040024185A1

Legend:
Experiment in all cases: cell-based or functional assay
[1] = target: T1, NF-AT4 expressed from an expression construct
T1 sequence (Q12968 2-1075, species assumed, looked up): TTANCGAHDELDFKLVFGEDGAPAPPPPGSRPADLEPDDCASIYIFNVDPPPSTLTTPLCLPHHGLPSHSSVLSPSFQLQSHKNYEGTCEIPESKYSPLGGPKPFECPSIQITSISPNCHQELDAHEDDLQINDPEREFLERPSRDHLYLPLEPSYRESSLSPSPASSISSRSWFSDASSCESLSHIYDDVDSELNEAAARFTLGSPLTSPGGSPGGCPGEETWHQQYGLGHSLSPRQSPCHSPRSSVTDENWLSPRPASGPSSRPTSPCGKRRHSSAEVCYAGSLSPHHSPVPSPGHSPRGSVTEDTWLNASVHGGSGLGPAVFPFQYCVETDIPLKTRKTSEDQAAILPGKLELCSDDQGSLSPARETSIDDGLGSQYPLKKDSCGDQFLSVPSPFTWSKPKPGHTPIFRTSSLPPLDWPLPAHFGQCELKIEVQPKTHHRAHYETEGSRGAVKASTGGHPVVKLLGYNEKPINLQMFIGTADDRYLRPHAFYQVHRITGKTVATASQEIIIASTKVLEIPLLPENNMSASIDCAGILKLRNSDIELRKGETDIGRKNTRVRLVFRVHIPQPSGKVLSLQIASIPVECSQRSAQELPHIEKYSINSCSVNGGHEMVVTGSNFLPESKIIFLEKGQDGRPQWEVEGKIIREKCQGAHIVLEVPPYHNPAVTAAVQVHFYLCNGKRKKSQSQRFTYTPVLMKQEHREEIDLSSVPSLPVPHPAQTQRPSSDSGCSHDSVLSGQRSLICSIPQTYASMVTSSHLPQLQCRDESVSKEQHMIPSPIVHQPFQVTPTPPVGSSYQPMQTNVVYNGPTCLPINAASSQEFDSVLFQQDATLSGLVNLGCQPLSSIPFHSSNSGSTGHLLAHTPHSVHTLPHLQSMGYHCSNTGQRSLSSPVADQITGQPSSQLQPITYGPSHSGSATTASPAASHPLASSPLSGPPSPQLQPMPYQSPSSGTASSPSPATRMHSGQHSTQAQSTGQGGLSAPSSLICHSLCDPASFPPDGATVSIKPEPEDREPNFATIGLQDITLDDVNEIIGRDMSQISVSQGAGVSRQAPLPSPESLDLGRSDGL

[2] = target: T2, NF-ATp expressed from an NF-ATp expression plasmid in HepG2 cells
T2 sequence (Q13469 1-925, species assumed, looked up): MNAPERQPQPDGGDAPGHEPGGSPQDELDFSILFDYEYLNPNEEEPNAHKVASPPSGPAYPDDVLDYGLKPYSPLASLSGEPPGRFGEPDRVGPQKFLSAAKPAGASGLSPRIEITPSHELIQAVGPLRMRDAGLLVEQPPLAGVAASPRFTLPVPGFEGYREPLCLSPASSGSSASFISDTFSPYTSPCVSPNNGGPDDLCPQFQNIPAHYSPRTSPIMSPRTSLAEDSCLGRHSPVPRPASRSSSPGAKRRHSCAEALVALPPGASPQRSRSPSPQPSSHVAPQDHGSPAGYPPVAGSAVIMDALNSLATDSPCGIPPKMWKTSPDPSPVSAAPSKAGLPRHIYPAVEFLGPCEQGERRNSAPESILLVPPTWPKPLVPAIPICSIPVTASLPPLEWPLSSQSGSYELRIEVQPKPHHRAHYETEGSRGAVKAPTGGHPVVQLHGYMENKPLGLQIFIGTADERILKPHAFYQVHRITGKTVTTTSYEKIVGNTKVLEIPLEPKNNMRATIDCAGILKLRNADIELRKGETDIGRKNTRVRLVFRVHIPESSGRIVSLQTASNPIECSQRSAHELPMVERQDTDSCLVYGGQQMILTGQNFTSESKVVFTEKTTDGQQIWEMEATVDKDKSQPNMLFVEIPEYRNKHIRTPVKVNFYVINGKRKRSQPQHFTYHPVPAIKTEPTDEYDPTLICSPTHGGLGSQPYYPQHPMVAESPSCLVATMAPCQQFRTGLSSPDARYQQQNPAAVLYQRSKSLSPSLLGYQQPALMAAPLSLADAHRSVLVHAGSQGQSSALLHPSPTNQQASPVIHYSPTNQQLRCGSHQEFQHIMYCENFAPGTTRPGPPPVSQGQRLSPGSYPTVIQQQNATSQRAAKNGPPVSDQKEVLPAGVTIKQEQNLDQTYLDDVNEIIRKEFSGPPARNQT

[3] = target: T3, NF-ATc expressed from an expression construct in HepG2 cells
T3 sequence (O95644 1-943, species assumed, looked up): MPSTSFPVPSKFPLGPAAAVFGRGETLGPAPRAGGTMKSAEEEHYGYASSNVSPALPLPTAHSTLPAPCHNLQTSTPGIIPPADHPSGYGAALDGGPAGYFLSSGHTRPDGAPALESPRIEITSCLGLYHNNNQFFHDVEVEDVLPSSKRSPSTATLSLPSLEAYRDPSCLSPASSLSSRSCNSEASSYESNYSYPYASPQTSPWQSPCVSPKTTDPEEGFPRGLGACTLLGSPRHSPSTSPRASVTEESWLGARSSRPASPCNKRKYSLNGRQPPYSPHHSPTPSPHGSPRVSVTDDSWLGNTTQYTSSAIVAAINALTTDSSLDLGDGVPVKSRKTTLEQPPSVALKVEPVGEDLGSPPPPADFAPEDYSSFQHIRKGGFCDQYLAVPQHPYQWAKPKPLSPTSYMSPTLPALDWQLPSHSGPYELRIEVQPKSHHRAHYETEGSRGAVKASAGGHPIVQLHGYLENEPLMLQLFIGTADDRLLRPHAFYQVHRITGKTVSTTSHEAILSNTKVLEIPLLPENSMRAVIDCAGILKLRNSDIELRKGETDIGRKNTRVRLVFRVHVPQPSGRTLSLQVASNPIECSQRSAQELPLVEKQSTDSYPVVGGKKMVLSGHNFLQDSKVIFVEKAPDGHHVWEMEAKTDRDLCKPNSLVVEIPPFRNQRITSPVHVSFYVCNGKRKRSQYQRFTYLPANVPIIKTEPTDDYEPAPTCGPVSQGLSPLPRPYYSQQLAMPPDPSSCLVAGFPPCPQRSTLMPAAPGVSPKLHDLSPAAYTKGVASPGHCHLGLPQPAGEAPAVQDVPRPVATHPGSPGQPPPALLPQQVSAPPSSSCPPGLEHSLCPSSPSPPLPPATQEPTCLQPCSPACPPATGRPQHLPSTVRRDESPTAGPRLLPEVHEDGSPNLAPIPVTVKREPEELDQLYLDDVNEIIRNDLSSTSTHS

[4] = target: T4, NF-AT3 expressed from an expression construct in HepG2 cells
T4 sequence (Q14934 1-902, species assumed, looked up): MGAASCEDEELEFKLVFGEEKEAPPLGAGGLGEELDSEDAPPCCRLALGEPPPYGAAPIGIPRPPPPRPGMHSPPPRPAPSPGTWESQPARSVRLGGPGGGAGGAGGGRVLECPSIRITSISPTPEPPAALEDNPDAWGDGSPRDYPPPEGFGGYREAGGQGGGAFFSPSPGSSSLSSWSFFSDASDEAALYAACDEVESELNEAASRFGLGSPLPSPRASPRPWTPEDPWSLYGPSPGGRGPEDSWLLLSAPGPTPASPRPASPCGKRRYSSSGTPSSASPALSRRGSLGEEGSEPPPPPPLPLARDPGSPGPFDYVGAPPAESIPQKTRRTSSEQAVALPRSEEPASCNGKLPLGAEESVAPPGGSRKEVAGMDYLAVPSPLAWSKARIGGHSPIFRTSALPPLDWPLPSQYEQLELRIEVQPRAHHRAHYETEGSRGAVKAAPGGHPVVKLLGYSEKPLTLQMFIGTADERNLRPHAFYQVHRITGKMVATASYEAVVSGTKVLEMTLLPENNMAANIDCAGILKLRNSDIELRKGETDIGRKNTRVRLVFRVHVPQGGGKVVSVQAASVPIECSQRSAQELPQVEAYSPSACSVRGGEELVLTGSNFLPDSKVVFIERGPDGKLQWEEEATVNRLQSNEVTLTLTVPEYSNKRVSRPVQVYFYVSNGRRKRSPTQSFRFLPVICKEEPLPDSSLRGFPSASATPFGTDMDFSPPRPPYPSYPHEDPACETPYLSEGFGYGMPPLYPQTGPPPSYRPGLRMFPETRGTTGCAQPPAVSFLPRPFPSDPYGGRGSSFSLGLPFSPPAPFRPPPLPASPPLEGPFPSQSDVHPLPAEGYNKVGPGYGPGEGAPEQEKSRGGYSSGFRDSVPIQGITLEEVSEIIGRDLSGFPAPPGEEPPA

- transactivation of a 3X NF-AT-CAT reporter in HepG2 cells [1]: 2 fold
- CAT activity of a 3X NF-AT-CAT reporter in HepG2 cells, relative to NF-ATp alone [2]: 4 to 5 fold
- CAT activity of a 3X NF-AT-CAT reporter in HepG2 cells, relative to vector alone [2]: 25 to 30 fold
- transactivation of a 3X NF-AT-CAT reporter in HepG2 cells [3]: 4 fold
- transactivation of a 3X NF-AT-CAT reporter in HepG2 cells [4]: 3 fold
B1: NIP45 expressed from a NIP45 expression plasmid (protein)
chain: MAEPLRGRGPRSRGGRGARRARGARGRCPRARQSPARLIPDTVLVDLVSDSDEEVLEVADPVEVPVARLPAPAKPEQDSDSDSEGAAEGPAGAPRTLVRRRRRRLLDPGEAPVVPVYSGKVQSSLNLIPDNSSLLKLCPSEPEDEADLTNSGSSPSEDDALPSGSPWRKKLRKKCEKEEKKMEEFPDQDISPLPQPSSRNKSRKHTEALQKLREVNKRLQDLRSCLSPKQHQSPALQSTDDEVVLVEGPVLPQSSRLFTLKIRCRADLVRLPVRMSEPLQNVVDHMANHLGVSPNRILLLFGESELSPTATPSTLKLGVADIIDCVVLASSSEATETSQELRLRVQGKEKHQMLEISLSPDSPLKVLMSHYEEAMGLSGHKLSFFFDGTKLSGKELPADLGLESGDLIEVWG
